For two molecules, signal frequency of the Bcl-xL-peptide complex results are on record in patent US20260168983A1, “YaxAB NANOPORE, NANOPORE SYSTEM COMPRISING SAME AND APPLICATIONS THEREOF” (KOREA RESEARCH INSTITUTE OF BIOSCIENCE AND BIOTECHNOLOGY, priority 2022, published 2026).

In this test the target is Bcl-xL protein, Q07817. Kind of test: YaxAB nanopore; Bcl-xL with a mix of four competing peptides at 1:15.
Sequence of Bcl-xL protein, Q07817 (Q07817 1-209): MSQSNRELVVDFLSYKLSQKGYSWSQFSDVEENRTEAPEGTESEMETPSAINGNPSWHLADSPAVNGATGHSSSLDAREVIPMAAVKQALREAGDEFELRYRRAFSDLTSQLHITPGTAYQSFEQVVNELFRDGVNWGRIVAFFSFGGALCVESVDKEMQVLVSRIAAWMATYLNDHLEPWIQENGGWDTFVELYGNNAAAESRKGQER

B1: Bak_BH3_I85A, Q16611 72-87 (peptide)
peptide: GQVGRQLAIIGDDANR
modifications: not checked
The molecule B1 gave a signal frequency of the Bcl-xL-peptide complex of 7%.

B2: Bak_BH3_L78A, Q16611 72-87 (peptide)
peptide: GQVGRQAAIIGDDINR
modifications: not checked
As for B2, the signal frequency of the Bcl-xL-peptide complex was found to be 3%.
